Starred links: 1 amine or outer side, 2 acyl side, 3 side chain; linkers in the order of their positions; H or OH if unused. Non-standard residues stand in square brackets, D forms with d. *: point of attachment. dBip = N[C@H](Cc1ccc(-c2ccccc2)cc1)C(=O)O; Oic = O=C(O)[C@@H]1C[C@@H]2CCCC[C@@H]2N1; Phe(4-Cl) = N[C@@H](Cc1ccc(Cl)cc1)C(=O)O; Phe(4-I) = N[C@@H](Cc1ccc(I)cc1)C(=O)O; γGlu = O=C(O)[C@H](CCC(=O)[*:2])N[*:1]; Tridecanoyl = CCCCCCCCCCCCC(=O)*; hArg = N=C(N)NCCCC[C@H](N)C(=O)O; Cha = N[C@@H](CC1CCCCC1)C(=O)O; NMeL = CN[C@@H](CC(C)C)C(=O)O; Nle = CCCC[C@H](N)C(=O)O; AEEA = NCCOCCOCC(=O)O
T1: human APJ receptor (human, UniProt P35414 1-380)
T1 sequence (looked up): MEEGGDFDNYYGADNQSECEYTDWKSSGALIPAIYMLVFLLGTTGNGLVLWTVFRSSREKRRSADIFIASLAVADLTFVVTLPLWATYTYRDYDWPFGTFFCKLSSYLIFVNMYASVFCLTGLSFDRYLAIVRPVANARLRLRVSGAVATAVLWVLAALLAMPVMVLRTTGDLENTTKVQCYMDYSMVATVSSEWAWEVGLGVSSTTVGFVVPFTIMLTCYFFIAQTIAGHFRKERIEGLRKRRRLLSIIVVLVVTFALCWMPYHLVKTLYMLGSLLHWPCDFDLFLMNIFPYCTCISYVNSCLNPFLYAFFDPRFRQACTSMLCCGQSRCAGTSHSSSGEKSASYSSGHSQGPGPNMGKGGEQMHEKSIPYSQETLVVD

T2: rat APJ receptor (rat, UniProt Q9JHG3 1-377)
T2 sequence (looked up): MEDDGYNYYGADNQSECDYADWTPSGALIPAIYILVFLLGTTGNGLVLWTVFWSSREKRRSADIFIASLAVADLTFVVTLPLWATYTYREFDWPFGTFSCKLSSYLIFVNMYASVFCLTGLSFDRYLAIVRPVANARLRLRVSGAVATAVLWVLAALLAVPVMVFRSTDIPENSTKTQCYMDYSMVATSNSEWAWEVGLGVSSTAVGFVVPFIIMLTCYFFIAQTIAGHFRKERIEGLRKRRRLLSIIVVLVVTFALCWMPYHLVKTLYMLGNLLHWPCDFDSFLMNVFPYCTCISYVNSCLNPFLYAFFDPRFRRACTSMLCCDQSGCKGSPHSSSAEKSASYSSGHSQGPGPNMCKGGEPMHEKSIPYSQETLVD

B1: Apelin polypeptide SEQ ID NO: 342 (peptide)
peptide: Tridecanoyl-[γGlu][AEEA][AEEA][Nle]QRP[hArg][Cha]SAKG[Oic][Nle]P[Phe(4-Cl)]-OH
SMILES: CCCCCCCCCCCCC(=O)N[C@@H](CCC(=O)NCCOCCOCC(=O)NCCOCCOCC(=O)N[C@@H](CCCC)C(=O)N[C@@H](CCC(N)=O)C(=O)N[C@@H](CCCNC(=N)N)C(=O)N1CCC[C@H]1C(=O)N[C@@H](CCCCNC(=N)N)C(=O)N[C@@H](CC1CCCCC1)C(=O)N[C@@H](CO)C(=O)N[C@@H](C)C(=O)N[C@@H](CCCCN)C(=O)NCC(=O)N1[C@H](C(=O)N[C@@H](CCCC)C(=O)N2CCC[C@H]2C(=O)N[C@@H](Cc2ccc(Cl)cc2)C(=O)O)C[C@@H]2CCCC[C@@H]21)C(=O)O
B2: Apelin polypeptide SEQ ID NO: 326 (peptide)
peptide: Tridecanoyl-[γGlu][AEEA][AEEA][Nle][dR]Q[hArg]P[dR][NMeL]SAKG[Oic][Phe(4-I)]P[dBip]-OH
SMILES: CCCCCCCCCCCCC(=O)N[C@@H](CCC(=O)NCCOCCOCC(=O)NCCOCCOCC(=O)N[C@@H](CCCC)C(=O)N[C@H](CCCNC(=N)N)C(=O)N[C@@H](CCC(N)=O)C(=O)N[C@@H](CCCCNC(=N)N)C(=O)N1CCC[C@H]1C(=O)N[C@H](CCCNC(=N)N)C(=O)N(C)[C@@H](CC(C)C)C(=O)N[C@@H](CO)C(=O)N[C@@H](C)C(=O)N[C@@H](CCCCN)C(=O)NCC(=O)N1[C@H](C(=O)N[C@@H](Cc2ccc(I)cc2)C(=O)N2CCC[C@H]2C(=O)N[C@H](Cc2ccc(-c3ccccc3)cc2)C(=O)O)C[C@@H]2CCCC[C@@H]21)C(=O)O
B3: Apelin polypeptide SEQ ID NO: 350 (peptide)
peptide: Tridecanoyl-[γGlu][AEEA][AEEA]RQRP[Nle][Cha]SAKG[Oic][Nle]P[Phe(4-Cl)]-OH
SMILES: CCCCCCCCCCCCC(=O)N[C@@H](CCC(=O)NCCOCCOCC(=O)NCCOCCOCC(=O)N[C@@H](CCCNC(=N)N)C(=O)N[C@@H](CCC(N)=O)C(=O)N[C@@H](CCCNC(=N)N)C(=O)N1CCC[C@H]1C(=O)N[C@@H](CCCC)C(=O)N[C@@H](CC1CCCCC1)C(=O)N[C@@H](CO)C(=O)N[C@@H](C)C(=O)N[C@@H](CCCCN)C(=O)NCC(=O)N1[C@H](C(=O)N[C@@H](CCCC)C(=O)N2CCC[C@H]2C(=O)N[C@@H](Cc2ccc(Cl)cc2)C(=O)O)C[C@@H]2CCCC[C@@H]21)C(=O)O
B4: Apelin polypeptide SEQ ID NO: 347 (peptide)
peptide: Tridecanoyl-[γGlu][AEEA][AEEA][Nle]QRP[hArg][Cha]AAKG[Oic][Nle]P[Phe(4-Cl)]-OH
SMILES: CCCCCCCCCCCCC(=O)N[C@@H](CCC(=O)NCCOCCOCC(=O)NCCOCCOCC(=O)N[C@@H](CCCC)C(=O)N[C@@H](CCC(N)=O)C(=O)N[C@@H](CCCNC(=N)N)C(=O)N1CCC[C@H]1C(=O)N[C@@H](CCCCNC(=N)N)C(=O)N[C@@H](CC1CCCCC1)C(=O)N[C@@H](C)C(=O)N[C@@H](C)C(=O)N[C@@H](CCCCN)C(=O)NCC(=O)N1[C@H](C(=O)N[C@@H](CCCC)C(=O)N2CCC[C@H]2C(=O)N[C@@H](Cc2ccc(Cl)cc2)C(=O)O)C[C@@H]2CCCC[C@@H]21)C(=O)O
B5: Apelin polypeptide SEQ ID NO: 316 (peptide)
peptide: Tridecanoyl-[γGlu][AEEA][AEEA][hArg][dR]Q[Nle]P[dR][NMeL]SHKG[Oic][Phe(4-I)]P[dBip]-OH
SMILES: CCCCCCCCCCCCC(=O)N[C@@H](CCC(=O)NCCOCCOCC(=O)NCCOCCOCC(=O)N[C@@H](CCCCNC(=N)N)C(=O)N[C@H](CCCNC(=N)N)C(=O)N[C@@H](CCC(N)=O)C(=O)N[C@@H](CCCC)C(=O)N1CCC[C@H]1C(=O)N[C@H](CCCNC(=N)N)C(=O)N(C)[C@@H](CC(C)C)C(=O)N[C@@H](CO)C(=O)N[C@@H](Cc1c[nH]cn1)C(=O)N[C@@H](CCCCN)C(=O)NCC(=O)N1[C@H](C(=O)N[C@@H](Cc2ccc(I)cc2)C(=O)N2CCC[C@H]2C(=O)N[C@H](Cc2ccc(-c3ccccc3)cc2)C(=O)O)C[C@@H]2CCCC[C@@H]21)C(=O)O
B6: Apelin polypeptide SEQ ID NO: 338 (peptide)
peptide: Tridecanoyl-[γGlu][AEEA][AEEA][Nle]QRP[hArg][Cha]SHKG[Oic][Nle]P[Phe(4-Cl)]-OH
SMILES: CCCCCCCCCCCCC(=O)N[C@@H](CCC(=O)NCCOCCOCC(=O)NCCOCCOCC(=O)N[C@@H](CCCC)C(=O)N[C@@H](CCC(N)=O)C(=O)N[C@@H](CCCNC(=N)N)C(=O)N1CCC[C@H]1C(=O)N[C@@H](CCCCNC(=N)N)C(=O)N[C@@H](CC1CCCCC1)C(=O)N[C@@H](CO)C(=O)N[C@@H](Cc1c[nH]cn1)C(=O)N[C@@H](CCCCN)C(=O)NCC(=O)N1[C@H](C(=O)N[C@@H](CCCC)C(=O)N2CCC[C@H]2C(=O)N[C@@H](Cc2ccc(Cl)cc2)C(=O)O)C[C@@H]2CCCC[C@@H]21)C(=O)O
B7: Apelin polypeptide SEQ ID NO: 328 (peptide)
peptide: Tridecanoyl-[γGlu][AEEA][AEEA][hArg][dR]Q[Nle]P[dR][NMeL]SAKG[Oic][Phe(4-I)]P[dBip]-OH
SMILES: CCCCCCCCCCCCC(=O)N[C@@H](CCC(=O)NCCOCCOCC(=O)NCCOCCOCC(=O)N[C@@H](CCCCNC(=N)N)C(=O)N[C@H](CCCNC(=N)N)C(=O)N[C@@H](CCC(N)=O)C(=O)N[C@@H](CCCC)C(=O)N1CCC[C@H]1C(=O)N[C@H](CCCNC(=N)N)C(=O)N(C)[C@@H](CC(C)C)C(=O)N[C@@H](CO)C(=O)N[C@@H](C)C(=O)N[C@@H](CCCCN)C(=O)NCC(=O)N1[C@H](C(=O)N[C@@H](Cc2ccc(I)cc2)C(=O)N2CCC[C@H]2C(=O)N[C@H](Cc2ccc(-c3ccccc3)cc2)C(=O)O)C[C@@H]2CCCC[C@@H]21)C(=O)O
B8: Apelin polypeptide SEQ ID NO: 332 (peptide)
peptide: Tridecanoyl-[γGlu][AEEA][AEEA][Nle][dR]Q[hArg]P[dR][NMeL]AAKG[Oic][Phe(4-I)]P[dBip]-OH
SMILES: CCCCCCCCCCCCC(=O)N[C@@H](CCC(=O)NCCOCCOCC(=O)NCCOCCOCC(=O)N[C@@H](CCCC)C(=O)N[C@H](CCCNC(=N)N)C(=O)N[C@@H](CCC(N)=O)C(=O)N[C@@H](CCCCNC(=N)N)C(=O)N1CCC[C@H]1C(=O)N[C@H](CCCNC(=N)N)C(=O)N(C)[C@@H](CC(C)C)C(=O)N[C@@H](C)C(=O)N[C@@H](C)C(=O)N[C@@H](CCCCN)C(=O)NCC(=O)N1[C@H](C(=O)N[C@@H](Cc2ccc(I)cc2)C(=O)N2CCC[C@H]2C(=O)N[C@H](Cc2ccc(-c3ccccc3)cc2)C(=O)O)C[C@@H]2CCCC[C@@H]21)C(=O)O
B9: Apelin polypeptide SEQ ID NO: 335 (peptide)
peptide: Tridecanoyl-[γGlu][AEEA][AEEA]RQRP[Nle][Cha]SHKG[Oic][Nle]P[Phe(4-Cl)]-OH
SMILES: CCCCCCCCCCCCC(=O)N[C@@H](CCC(=O)NCCOCCOCC(=O)NCCOCCOCC(=O)N[C@@H](CCCNC(=N)N)C(=O)N[C@@H](CCC(N)=O)C(=O)N[C@@H](CCCNC(=N)N)C(=O)N1CCC[C@H]1C(=O)N[C@@H](CCCC)C(=O)N[C@@H](CC1CCCCC1)C(=O)N[C@@H](CO)C(=O)N[C@@H](Cc1c[nH]cn1)C(=O)N[C@@H](CCCCN)C(=O)NCC(=O)N1[C@H](C(=O)N[C@@H](CCCC)C(=O)N2CCC[C@H]2C(=O)N[C@@H](Cc2ccc(Cl)cc2)C(=O)O)C[C@@H]2CCCC[C@@H]21)C(=O)O
B10: Apelin polypeptide SEQ ID NO: 320 (peptide)
peptide: Tridecanoyl-[γGlu][AEEA][AEEA][Nle][dR]Q[hArg]P[dR][NMeL]AHKG[Oic][Phe(4-I)]P[dBip]-OH
SMILES: CCCCCCCCCCCCC(=O)N[C@@H](CCC(=O)NCCOCCOCC(=O)NCCOCCOCC(=O)N[C@@H](CCCC)C(=O)N[C@H](CCCNC(=N)N)C(=O)N[C@@H](CCC(N)=O)C(=O)N[C@@H](CCCCNC(=N)N)C(=O)N1CCC[C@H]1C(=O)N[C@H](CCCNC(=N)N)C(=O)N(C)[C@@H](CC(C)C)C(=O)N[C@@H](C)C(=O)N[C@@H](Cc1c[nH]cn1)C(=O)N[C@@H](CCCCN)C(=O)NCC(=O)N1[C@H](C(=O)N[C@@H](Cc2ccc(I)cc2)C(=O)N2CCC[C@H]2C(=O)N[C@H](Cc2ccc(-c3ccccc3)cc2)C(=O)O)C[C@@H]2CCCC[C@@H]21)C(=O)O

Each binder was assayed against T1, human APJ receptor (assay: cell-based or functional assay).

| EC50 Human APJ Receptor (GTPγS assay) [nM] | Binder |
| --- | --- |
| 0.803 | B1 |
| 14.8 | B2 |
| 0.285 | B3 |
| 1.89 | B4 |
| 6 | B5 |
| 0.56 | B6 |
| 9.17 | B7 |
| 40 | B8 |
| 0.315 | B9 |
| 17.9 | B10 |

What follows are binders tested against T2, rat APJ receptor (assay: cell-based or functional assay).

| EC50 Rat APJ Receptor (GTPγS assay) [nM] | Binder |
| --- | --- |
| 0.684 | B1 |
| 17.8 | B2 |
| 0.624 | B3 |
| 2.13 | B4 |
| 9.29 | B5 |
| 0.766 | B6 |
| 7.7 | B7 |
| 50.5 | B8 |
| 0.964 | B9 |
| 37.7 | B10 |

Source: patent US10941182 (Amgen, dated 2021)
